The results in this text go back to patent US20120058906A1 (published 2012).

The target of assay [1] is T1, rHuman Erythropoietin R/Fc Chimera, CF (R&D Systems Cat#963-ER) (human, UniProt P19235 25-250).
T1 construct: Bought reagent; also called EPO R/Fc; Epo R; Fc part of the bought chimera not given
T1 sequence: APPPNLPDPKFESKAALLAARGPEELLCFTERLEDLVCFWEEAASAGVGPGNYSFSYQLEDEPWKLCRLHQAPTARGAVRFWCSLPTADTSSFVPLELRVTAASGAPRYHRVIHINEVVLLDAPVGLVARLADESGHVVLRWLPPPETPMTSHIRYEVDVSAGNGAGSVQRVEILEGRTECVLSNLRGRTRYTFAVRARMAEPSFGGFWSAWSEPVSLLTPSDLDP
Kind of assay: ECL (MSD multi-spot), antigen spotted on plate; Fab 352.5 nM; blank spot 494.

In assay [2] the target is T2, Recombinant Human DLL4 (R&D Systems Cat#1506-D4/CF) (human, UniProt Q9NR61 27-524).
T2 construct: Bought reagent; also called delta-like protein 4
The assay is described as above.

In assay [3] the target is T3, rHuman ErbB2/Fc Chimera, CF (R&D Systems Cat#1129-ER) (human, UniProt P04626 23-652).
T3 construct: Bought reagent; also called HER2/neu; human epidermal growth factor 2 receptor; Fc part of the bought chimera not given
Described as above.

Assay [4] deals with T4, rHuman EGF R/Fc Chimera, CF (R&D Systems Cat#344-ER) (human, UniProt P00533 25-645).
T4 construct: Bought reagent; also called epidermal growth factor receptor; Fc part of the bought chimera not given
The description is as above.

The target in assay [5] is T5, rHuman HGF R/c-MET/Fc Chimera, CF (R&D Systems Cat#358-MT/CF) (human, UniProt P08581 25-932).
T5 construct: Bought reagent; also called HGF R/Fc; hepatocyte growth factor receptor; Fc part of the bought chimera not given
The assay is described as above.

For assay [6], the target named is T6, rHuman Notch-1/Fc Chimera, CF (R&D Systems Cat#3647-TK) (human, UniProt P46531 19-526).
T6 construct: Bought reagent; Fc part of the bought chimera not given
Described as above.

The target in assay [7] is T7, rHuman CD44/Fc Chimera, CF (R&D Systems Cat#3660-CD) (human, UniProt P16070 21-220).
T7 construct: Bought reagent; Fc part of the bought chimera not given
The assay is described as above.

Assay [8] deals with T8, rHuman IGF-1 sR (IGF-1 sR), CF (R&D Systems Cat#391-GR) (human, UniProt P08069 31-932).
T8 construct: Bought soluble receptor; also called insulin-like growth factor-1 soluble receptor; IGF-R1
The assay is described as above.

Assay [9] deals with T9, rHuman P-Cadherin/Fc Chimera, CF (R&D Systems Cat#861-PC) (human, UniProt P22223 108-654).
T9 construct: Bought reagent; also called CDH3; Fc part of the bought chimera not given
Described as above.

The target of assay [10] is T10, rHuman IGF-1 sR (IGF-1 sR), CF (R&D Systems Cat#391-GR) (human, UniProt P08069 31-932).
T10 construct: Purchased soluble receptor; also called insulin-like growth factor-1 soluble receptor; IGF-R1
Kind of assay: MSD ECL multi-spot plate, antigen immobilized; Fab 200 nM; blank spot 588.

Assay [11] has as its target T11, rHuman Erythropoietin R/Fc Chimera, CF (R&D Systems Cat#963-ER) (human, UniProt P19235 25-250).
T11 construct: Purchased Fc chimera; also called EPO R/Fc; Epo R; not shown: Fc portion of the purchased chimera
T11 sequence: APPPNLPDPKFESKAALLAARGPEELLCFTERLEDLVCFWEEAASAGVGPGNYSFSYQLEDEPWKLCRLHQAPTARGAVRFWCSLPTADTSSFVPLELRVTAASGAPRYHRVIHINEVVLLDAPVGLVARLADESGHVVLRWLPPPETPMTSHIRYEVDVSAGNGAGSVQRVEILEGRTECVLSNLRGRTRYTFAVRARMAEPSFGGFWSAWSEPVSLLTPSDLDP
The description is as above.

In assay [12] the target is T12, Recombinant Human DLL4 (R&D Systems Cat#1506-D4/CF) (human, UniProt Q9NR61 27-524).
T12 construct: Purchased recombinant protein; also called delta-like protein 4
The description is as above.

The target of assay [13] is T13, rHuman ErbB2/Fc Chimera, CF (R&D Systems Cat#1129-ER) (human, UniProt P04626 23-652).
T13 construct: Purchased Fc chimera; also called HER2/neu; not shown: Fc portion of the purchased chimera
Described as above.

The target of assay [14] is T14, rHuman EGF R/Fc Chimera, CF (R&D Systems Cat#344-ER) (human, UniProt P00533 25-645).
T14 construct: Purchased Fc chimera; not shown: Fc portion of the purchased chimera
The description is as above.

The target in assay [15] is T15, rHuman HGF R/c-MET/Fc Chimera, CF (R&D Systems Cat#358-MT/CF) (human, UniProt P08581 25-932).
T15 construct: Purchased Fc chimera; also called HGF R/Fc; not shown: Fc portion of the purchased chimera
Described as above.

Assay [16] deals with T16, rHuman Notch-1/Fc Chimera, CF (R&D Systems Cat#3647-TK) (human, UniProt P46531 19-526).
T16 construct: Purchased Fc chimera; not shown: Fc portion of the purchased chimera
The assay is described as above.

Assay [17] has as its target T17, rHuman CD44/Fc Chimera, CF (R&D Systems Cat#3660-CD) (human, UniProt P16070 21-220).
T17 construct: Purchased Fc chimera; not shown: Fc portion of the purchased chimera
Described as above.

Assay [18] deals with T18, rHuman Notch-1/Fc Chimera, CF (R&D Systems Cat#3647-TK) (human, UniProt P46531 19-526).
T18 construct: Bought Fc chimera; Fc part of the bought chimera not given
Kind of assay: ECL (MSD Multi-Spot) binding assay, antigen spotted on plate; Fab 51 nM; blank spot 335.
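Also: blank spot per well as comparator with Hit at signal to blank ratio of 4 or more.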

B1: Fab VH1-46_IGHD3-10*01_IGHJ4*01 & B3_IGKJ1*01 (Fab, V domains shown)
VH: QVQLVQSGAEVKKPGASVKVSCKASGYTFTSYYMHWVRQAPGQGLEWMGIINPSGGSTSYAQKFQGRVTMTRDTSTSTVYMELSSLRSEDTAVYYCAREYYYGSGSYYNDYFDYWGQGTLVTVSS
VL: not shown
notes: also called IGHV1-46*01
Consider B1, for which the ECL signal in assay [1] turned out to be 4100; in [2] it was 660; in assay [3], 514; in [4], 769; in assay [5], 606; in assay [6], 715. For the same molecule, the ECL signal turned out to be 556 in assay [7], 528 in assay [8] and 649 in assay [9].

B2: Fab VH5-51_IGHD5-18*01>3_IGHJ4*01_G100K & V3-4_IGLJ1*01 (Fab, V domains shown)
VH: EVQLVQSGAEVKKPGESLKISCKGSGYSFTSYWIGWVRQMPGKGLEWMGIIYPGDSDTRYSPSFQGQVTISADKSISTAYLQWSSLKASDTAMYYCARRKYSYGYDYFDYWGQGTLVTVSS
VL: QTVVTQEPSFSVSPGGTVTLTCGLSSGSVSTSYYPSWYQQTPGQAPRTLIYSTNTRSSGVPDRFSGSILGNKAALTITGAQADDESDYYCVLYMGSGISYVFGTGTKVTVL
notes: It was expressed as a Fab: CH1 with tags from Plasmid A and lambda CL from Plasmid E; also called Fab No. 22
In the case of B2, the ECL signal in assay [10] was found to be 1320 ECL signal; in assay [11], 1230 ECL signal; in assay [12], 45400 ECL signal; in assay [13] it was 1470 ECL signal; in assay [14] it was 1370 ECL signal; in [15], 1430 ECL signal. Moreover, the ECL signal is 1250 ECL signal in assay [16] and 1160 ECL signal in assay [17].

B3: Fab VH5-51_IGHD5-18*01>3_IGHJ4*01 & V3-4_IGLJ1*01 (Fab, V domains shown)
VH: EVQLVQSGAEVKKPGESLKISCKGSGYSFTSYWIGWVRQMPGKGLEWMGIIYPGDSDTRYSPSFQGQVTISADKSISTAYLQWSSLKASDTAMYYCARRGYSYGYDYFDYWGQGTLVTVSS
VL: QTVVTQEPSFSVSPGGTVTLTCGLSSGSVSTSYYPSWYQQTPGQAPRTLIYSTNTRSSGVPDRFSGSILGNKAALTITGAQADDESDYYCVLYMGSGISYVFGTGTKVTVL
notes: Tested as a Fab made in E. coli; also called IGHV5-51*03
With B3, the ECL signal in assay [18] turned out to be 685.
